Each block holds one substance with its values, some of them ahead of it.
What was measured:
[1] = molecular target: tEGFR-ω fusion (extracellular and transmembrane regions of the EGF receptor fused to the ω fragment); assay: cell-based or functional assay
[2] = molecular target: ω-NLS (ω fragment fused to a triplet SV40 nuclear localization signal); assay: cell-based or functional assay
Chain of ω-NLS (ω fragment fused to a triplet SV40 nuclear localization signal) (P00722 other isoform, or with tags, fused parts or gaps): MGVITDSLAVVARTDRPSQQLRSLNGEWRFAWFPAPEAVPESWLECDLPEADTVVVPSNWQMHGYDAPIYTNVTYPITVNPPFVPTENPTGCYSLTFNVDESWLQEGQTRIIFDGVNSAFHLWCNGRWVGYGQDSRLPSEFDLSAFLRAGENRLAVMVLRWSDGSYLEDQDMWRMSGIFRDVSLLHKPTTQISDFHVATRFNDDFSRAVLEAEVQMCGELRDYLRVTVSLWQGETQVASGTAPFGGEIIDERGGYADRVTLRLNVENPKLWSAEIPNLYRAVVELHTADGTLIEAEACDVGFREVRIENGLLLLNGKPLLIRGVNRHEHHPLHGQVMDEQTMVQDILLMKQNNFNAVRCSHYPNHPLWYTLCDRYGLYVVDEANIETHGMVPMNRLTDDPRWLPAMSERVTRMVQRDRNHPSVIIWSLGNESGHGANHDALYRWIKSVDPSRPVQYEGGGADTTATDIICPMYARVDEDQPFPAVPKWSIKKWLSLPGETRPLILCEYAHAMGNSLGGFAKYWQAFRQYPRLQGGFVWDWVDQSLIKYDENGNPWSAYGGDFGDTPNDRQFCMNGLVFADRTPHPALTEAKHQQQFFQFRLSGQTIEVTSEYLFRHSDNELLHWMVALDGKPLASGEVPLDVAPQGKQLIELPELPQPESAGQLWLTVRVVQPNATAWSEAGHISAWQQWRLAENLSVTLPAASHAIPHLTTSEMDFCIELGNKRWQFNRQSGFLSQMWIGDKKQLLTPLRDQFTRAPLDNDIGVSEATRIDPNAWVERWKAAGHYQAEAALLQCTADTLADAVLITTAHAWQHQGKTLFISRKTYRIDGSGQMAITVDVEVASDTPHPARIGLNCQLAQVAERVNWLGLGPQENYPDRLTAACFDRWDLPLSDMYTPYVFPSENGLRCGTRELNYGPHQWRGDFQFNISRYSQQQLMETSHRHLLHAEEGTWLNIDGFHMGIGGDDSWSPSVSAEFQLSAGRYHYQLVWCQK

Chain of tEGFR-ω fusion (extracellular and transmembrane regions of the EGF receptor fused to the ω fragment) (P00722 other isoform, or with tags, fused parts or gaps): as above

increase in β-galactosidase activity on PMA (NIH 3T3 cells, membrane translocation assay) [1]: < 10 % increase
Substance: C1A domain of PKCγ fused to GFP-α (wild type α peptide) (from UniProt P42212 1-238)

fold induction of β-galactosidase activity on PMA (NIH 3T3 cells, membrane translocation assay) (fold induction) [1]: 7
Substance: C1A domain of PKCγ fused to the GFP-α H31R point mutant (from UniProt P42212 1-238)

increase in β-galactosidase activity on PDGF, luminescent assay in 3T3 cells [1]: 5 fold
increase in β-galactosidase activity on insulin, luminescent assay in 3T3 cells [1]: 2.5 fold
increase in β-galactosidase activity on osmotic shock (sorbitol), luminescent assay in 3T3 cells [1]: 8 fold
Substance: PH domain of AKT fused to the GFP-α chimera (from UniProt P42212 1-238)

More lines, now with the values behind:

Substance: NES-GFP-α-NLS protein (MEK nuclear export signal, GFP, α peptide, triplet SV40 NLS) (from UniProt P42212 1-238)
β-galactosidase activity after leptomycin B for 2 hours (gain of signal assay, luminescent substrate) (fold increase) [2]: 3.5
β-galactosidase activity after leptomycin B (loss of signal assay) (fold decrease) [1]: 5

Substance: glucocorticoid receptor fused to the amino-terminus of the GFP-α fusion (from UniProt P42212 1-238)
change in β-galactosidase activity with dexamethasone, DDAO substrate, flow cytometry of live cells [2]: 5 to 10 fold change
difference in β-galactosidase activity at 30 min of dexamethasone (gain of signal assay) [2]: 100%
β-galactosidase activity after 1 µM dexamethasone for 3 hours (gain of signal assay) (fold induction) [2]: 3.5
change in β-galactosidase activity with dexamethasone, DDAO substrate, flow cytometry of live cells [1]: 5 to 10 fold change
difference in β-galactosidase activity at 30 min of dexamethasone (loss of signal assay) [1]: 25%
β-galactosidase activity after 1 µM dexamethasone for 3 hours (loss of signal assay) [1]: 5 fold
